T1: human transmembrane protein 180 (TMEM-180), endogenous on human cancer cells (human, UniProt Q14CX5 1-517)
T1 construct: Membrane protein expressed endogenously by human colon cancer lines (DLD-1 and others), brain tumor lines and colon cancer tissue; also called TMEM-180 on DLD-1 cells
T1 sequence: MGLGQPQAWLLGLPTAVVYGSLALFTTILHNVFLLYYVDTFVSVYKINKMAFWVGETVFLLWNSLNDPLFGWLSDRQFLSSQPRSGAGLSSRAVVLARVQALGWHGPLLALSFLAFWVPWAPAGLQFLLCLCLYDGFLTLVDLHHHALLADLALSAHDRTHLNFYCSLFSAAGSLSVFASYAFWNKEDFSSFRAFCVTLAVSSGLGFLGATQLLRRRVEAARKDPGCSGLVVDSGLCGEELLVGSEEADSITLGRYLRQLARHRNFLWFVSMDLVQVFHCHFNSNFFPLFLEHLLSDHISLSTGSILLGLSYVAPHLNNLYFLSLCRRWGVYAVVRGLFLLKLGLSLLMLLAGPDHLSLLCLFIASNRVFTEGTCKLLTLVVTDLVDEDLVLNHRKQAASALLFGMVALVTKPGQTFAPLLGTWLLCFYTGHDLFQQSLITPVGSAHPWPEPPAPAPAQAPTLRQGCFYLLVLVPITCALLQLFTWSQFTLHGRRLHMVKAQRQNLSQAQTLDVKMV

B1: anti-TMEM-180 antibody clone 101 (rat IgM) (antibody, V domains shown)
VH: QVQLKETGPGLVQPTQTLSITCTVSGFSLTSYYMQWVRQTPGKGLEWMGFIRSGGSTEYNSEFKSRLSISRDTSKNQVFLKMNSLKTEDTGVYYCARAFYGGYYFDYWGQGVMVTVSS
VL: DIVMTQSPTSISISVGERVTMNCKASQNVGSNVDWYQQKTGQSPKLLIYKASNRYTGVPDRFTGSGSGTDFTFTISNMQAEDLAVYYCMQSNTKYTFGAGTKLELK
notes: Rat IgM from hybridoma; the entries appear to include a leader and no cleavage site is stated
B2: anti-TMEM-180 antibody clone 212 (rat IgM) (antibody, V domains shown)
VH: EVQLVESGGGLVQPGNSLKLSCAASGFTFSDYAMAWVRQSPKKGLEWVATIIYDGSSTYYRDSVKGRFTISRDNAKSTLYLQMDSLRSEDTATYYCATHWYWYFDFWGPGTMVTVSS
VL: DIQMTQSPASLSASLGETVSIECLASEGISNDLAWYQQKSGKSPQLLIYAASRLQDGVPSRFSGSGSGTRYSLKISGMQPEDEADYFCQQSYKYPLTFGSGTKLEIK
notes: as for B1
B3: anti-TMEM-180 antibody clone 1052 (rat IgM) (antibody, V domains shown)
VH: QVQLKESGPGLMQPSETLSLTCTVSGFSLTSNGVGWVRQPLGKGLVWMGTIWTGGGTNYNSGVQSRLSISRDTSKSQVFLKMNSLQPEDTGTYYCAREYMGFDYWGQGVMVTVSS
VL: NTVMTQSPTSMFTSVGDRVTMSCKASQNVGINVGWYQQKTGQSPKRLIYWASNRDTGVPDRFTGSGSGTDFTLTISNMQAEDPAIYYCLQHNSYPRTFGGGTKLELK
notes: the entries appear to include a leader
B4: anti-TMEM-180 antibody clone 1105 (rat IgM) (antibody, V domains shown)
VH: QVQLKESGPGLMQPSETLSLTCTVSGFSLTSNGVGWVRQPLGKGLVWMGTIWSGGGTNYNSAVQSRLSITRDTSKSQVFLKMNSLQPEDTGTYYCAREEKGFAYWGQGTLVTVSS
VL: NIVMTQSPTSMSTSVGDRVTMSCKASQNVGINVGWYQQKTGQSPKRLIYWASNRDTGVPDRFTGSGSGTDFTLTISNMQAEDPAIYYCLQHNSYPRAFGGGTKLELR
notes: as for B3
B5: anti-TMEM-180 antibody clone 129 (rat IgG) (antibody, V domains shown)
VH: QIQLVQSGPELKKPGESVKISCKASGYTFTDCALNWVKQAPGNGLKWMGWINTQTGKPTYADDFKQRFVFSLETSASTAYLQINNLNIEDTATYFCTREDYGYFDYWGQGVMVTVSS
VL: DIQMTQSPPSLSASLGDKVTITCQASQNINKFIAWYQQKPGKAPRHLVHYTSTLVSGTPSRFSGSGSGRDYSFSISNVESEDIASYYCLQYDNLRTFGGGTKLELK
notes: as for B3
B6: anti-TMEM-180 antibody clone 699 (rat IgM) (antibody, V domains shown)
VH: QVQLQQSGAELTKPGSSVKISCKASGYTFTSYDISWIKQRPGQALEWIGAINPGSGGTGYNEKFKGKATLTVDKSSSTAFMQLSSLTPEDTAVYYCARIHGGYRYWFAYWGQGTLVTVSS
VL: EIVLTQSPTTMAASPGEKVTITCRASSSVSYMHWFQQKSGTSPKPWIYDTSKLASGVPDRFSGSGSGTSYSLTISSMEAEDAATYYCLQRSSYPPTFGAGTKLELK
notes: as for B3
B7: rat IgM antibody clone 98 (anti-TMEM-180 antibody clone 98) (antibody, V domains shown)
VH: QVQLKESGPGLVQPSQTLSLTCTVSGFSLTRYNVHWVRQPTGKGLEWMGVIWTGGSTDYNSALKSRLSISRDTSKSQVFLKMNSLQTEDIATYYCARDLGYWGQGVMVTVSS
VL: DIVMTQTPLSLSVAIGQSASISCKSSQSLKYRDGKTYLNWVFQSPGQSPKRLIYQVSKLDSGVPDRFSGTGSETDFTLKISRVEAEDLGVYYCCQGSYSPHTFGAGTKLELK
notes: Rat IgM from hybridoma, used as culture supernatant; also called IgM 98; Anti-TMEM-180 IgM rat antibody (clone 98)
B8: anti-TMEM-180 antibody clone 382 (rat IgG) (antibody, V domains shown)
VH: EVQLVESGGGLVQPGRSLKLSCAASGFTFSNYGMHWIRQAPTKGLEWVASISPSGGSTYYRDSVKGRFTISRDNAKSTLYLQMDSLRSEDTATYYCATSASITAYYYVMDAWGQGASVTVSS
VL: DIVMTQSPTSMSISVGDRVTMNCKASQNVGSNVDWYQQKTGQSPKLLIYKASNRYTGVPDRFTGSGSGTDFTFTISNMQAEDLAVYYCMQSNSYPPTFGGGTKLELR
notes: as for B3
B9: rat-human chimeric antibody clone 98 (antibody, V domains shown)
VH: QVQLKESGPGLVQPSQTLSLTCTVSGFSLTRYNVHWVRQPTGKGLEWMGVIWTGGSTDYNSALKSRLSISRDTSKSQVFLKMNSLQTEDIATYYCARDLGYWGQGVMVTVSS
VL: DIVMTQTPLSLSVAIGQSASISCKSSQSLKYRDGKTYLNWVFQSPGQSPKRLIYQVSKLDSGVPDRFSGTGSETDFTLKISRVEAEDLGVYYCCQGSYSPHTFGAGTKLELK
notes: Used as culture supernatant diluted two-fold; also called human chimeric IgG antibody

One assay deals with T1, human transmembrane protein 180 …. Kind of assay: flow cytometry on colon cancer and brain tumor cell lines. Background: Flow cytometry measures light scatter and fluorescence of single cells or particles in a stream.
In the case of B1, the binding result is “binds”.

Take B2: the binding result is on record as “binds”.

The next assay has the same target. Kind of assay: flow cytometry, hybridoma supernatant on DLD-1 cells (selection of clones).
On to B3, for which the binding result is given as “binds”.

As to B4, the binding result is given as “binds”.

B5: the binding result was “binds”.

For the molecule B6, the binding result was “binds”.

For B7, the binding result is “binds”.

With B8, the binding result is given as “binds”.

For a further assay the target is unchanged. Kind of assay: flow cytometry, DLD-1 parent line against TMEM-180 knockout line; culture supernatant diluted two-fold. How it is done: The plate was centrifuged for 3 minutes at 440×g and 4° C. followed by removing the supernatant, adding antibody-producing hybridoma culture supernatant or antibody solution to the cell pellet at 50 μL/well and suspending therein. After allowing to react for 45 minutes on ice, the plate was washed three times with a mixture of 0.1% BSA, 2 mM EDTA and PBS at 200 μL/well. The supernatant was removed and secondary antibody was added to the cell pellet at 50 μL/well followed by suspending the cells therein. AlexaFluor 647 goat anti-rat IgG (H-L) (Life Technologies Corporation) was used for the secondary antibody after diluting 400-fold with a mixture of 0.1% BSA, 2 mM EDTA and PBS. After allowing to react for 45 minutes on ice, the plate was washed three times with a mixture of 0.1% BSA, 2 mM EDTA and PBS at 200 μL/well. […] The cells stained in this manner were measured using a flow cytometer such as the Guava easyCyte 8HT (Merck Millipore Corporation) followed by analysis of the resulting data using FlowJO (Tomy Digital Biology Co., Ltd.). […]
Flow cytometry was carried out in accordance with the procedure described in the above-mentioned section 3. […] Furthermore, antibody concentration in the hybridoma culture supernatant was measured by rat IgM-specific ELISA (Bethyl Laboratories).
As to B9, the binding result is “binds”.

Source of the values: patent US20170260284A1 (NATIONAL CANCER CENTER, published 2017).
